Data set [1] addresses bovine serum albumin, P02769.
In data set [2] the target is C. muridarum Major Outer Membrane Protein (MOMP).

bovine serum albumin, P02769, sequence (P02769 25-607): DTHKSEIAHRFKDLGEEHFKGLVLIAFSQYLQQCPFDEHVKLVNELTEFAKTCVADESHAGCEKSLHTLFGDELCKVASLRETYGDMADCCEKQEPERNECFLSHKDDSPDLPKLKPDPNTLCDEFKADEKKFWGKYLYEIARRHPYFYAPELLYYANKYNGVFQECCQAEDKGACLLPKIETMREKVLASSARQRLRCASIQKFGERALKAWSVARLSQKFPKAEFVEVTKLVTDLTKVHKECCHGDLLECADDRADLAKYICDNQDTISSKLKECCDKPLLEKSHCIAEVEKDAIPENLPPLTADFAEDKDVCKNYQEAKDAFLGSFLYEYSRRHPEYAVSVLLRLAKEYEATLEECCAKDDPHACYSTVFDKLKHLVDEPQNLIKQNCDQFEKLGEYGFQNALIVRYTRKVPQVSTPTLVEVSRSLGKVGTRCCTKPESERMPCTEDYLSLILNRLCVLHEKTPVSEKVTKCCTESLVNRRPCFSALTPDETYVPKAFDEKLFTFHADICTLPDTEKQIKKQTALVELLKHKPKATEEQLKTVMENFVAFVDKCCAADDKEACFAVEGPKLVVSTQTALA

B1: wild-type C. trachomatis HtrA (CT823) (protein)
chain: SPMLGYSASKKDSKADICLAVSSGDQEVSQEDLLKEVSRGFSRVAAKATPGVVYIENFPKTGNQAIASPGNKRGFQENPFDYFNDEFFNRFFGLPSHREQQRPQQRDAVRGTGFIVSEDGYVVTNHHVVEDAGKIHVTLHDGQKYTAKIVGLDPKTDLAVIKIQAEKLPFLTFGNSDQLQIGDWAIAIGNPFGLQATVTVGVISAKGRNQLHIVDFEDFIQTDAAINPGNSGGPLLNINGQVIGVNTAIVSGSGGYIGIGFAIPSLMAKRVIDQLISDGQVTRGFLGVTLQPIDSELATCYKLEKVYGALVTDVVKGSPAEKAGLRQEDVIVAYNGKEVESLSALRNAISLMMPGTRVVLKIVREGKTIEIPVTVTQIPTEDGVSALQKMGVRVQNITPEICKKLGLAADTRGILVVAVEAGSPAASAGVAPGQLILAVNRQRVASVEELNQVLKNSKGENVLLMVSQGDVVRFIVLKSDE
Regarding B1, in data set [1], the “protease digestion of BSA, overnight at 37 C, SDS-PAGE/Coomassie, with DTT” value is reported as “strong protease activity in the presence of the reducing agent DTT (dithiothreitol) as shown by degradation of the intact BSA protein”.

B2: wild type C. muridarum HtrA (TC0210) (protein)
chain: SPMLGYSAPKKDSSTGICLAASQSDRELSQEDLLKEVSRGFSKVAAQATPGVVYIENFPKTGSQAIASPGNKRGFQENPFDYFNDEFFNRFFGLPSHREQPRPQQRDAVRGTGFIVSEDGYVVTNHHVVEDAGKIHVTLHDGQKYTAKIIGLDPKTDLAVIKIQAKNLPFLTFGNSDQLQIGDWSIAIGNPFGLQATVTVGVISAKGRNQLHIVDFEDFIQTDAAINPGNSGGPLLNIDGQVIGVNTAIVSGSGGYIGIGFAIPSLMAKRVIDQLISDGQVTRGFLGVTLQPIDSELAACYKLEKVYGALITDVVKGSPAEKAGLRQEDVIVAYNGKEVESLSALRNAISLMMPGTRVVLKVVREGKFIEIPVTVTQIPAEDGVSALQKMGVRVQNLTPEICKKLGLASDTRGIFVVSVEAGSPAASAGVVPGQLILAVNRQRVSSVEELNQVLKNAKGENVLLMVSQGEVIRFVVLKSDE
Turning to B2, in data set [2], the “protease digestion of MOMP, SDS-PAGE/Coomassie, with DTT” value is recorded as “completely degrades MOMP protein in the presence of DTT (lane 7)” and the “protease digestion of MOMP, SDS-PAGE/Coomassie, without DTT” value is on record as “strongly degrades MOMP protein in the absence of DTT (lane 5)”. For the same protein, the “protease digestion of BSA, SDS-PAGE/Coomassie, with DTT” value in data set [1] was “possesses a strong protease activity as it degrades the BSA substrate (lane 5)”.

B3: TC0210-(H143R) (protein)
chain: SPMLGYSAPKKDSSTGICLAASQSDRELSQEDLLKEVSRGFSKVAAQATPGVVYIENFPKTGSQAIASPGNKRGFQENPFDYFNDEFFNRFFGLPSHREQPRPQQRDAVRGTGFIVSEDGYVVTNHRVVEDAGKIHVTLHDGQKYTAKIIGLDPKTDLAVIKIQAKNLPFLTFGNSDQLQIGDWSIAIGNPFGLQATVTVGVISAKGRNQLHIVDFEDFIQTDAAINPGNSGGPLLNIDGQVIGVNTAIVSGSGGYIGIGFAIPSLMAKRVIDQLISDGQVTRGFLGVTLQPIDSELAACYKLEKVYGALITDVVKGSPAEKAGLRQEDVIVAYNGKEVESLSALRNAISLMMPGTRVVLKVVREGKFIEIPVTVTQIPAEDGVSALQKMGVRVQNLTPEICKKLGLASDTRGIFVVSVEAGSPAASAGVVPGQLILAVNRQRVSSVEELNQVLKNAKGENVLLMVSQGEVIRFVVLKSDE
Consider B3, for which the “protease digestion of MOMP, SDS-PAGE/Coomassie, with and without DTT” value in data set [2] is “does not degrade the MOMP protein, either in the presence of DTT (lane 8) or in the absence of DTT (lane 6)”. Besides, in data set [1], the “protease digestion of BSA, SDS-PAGE/Coomassie, with DTT” value is “does not degrade the BSA substrate (lane 3)”.

For the origin of these results see patent publication US20110110857.
